According to patent US20230399394A1 (SUNSHINE GUOJIAN PHARMACEUTICAL SHANGHAI, published 2023):
Positions count from the first letter of the chain named.

B1: 874F7 (antibody, V domains shown)
VH: QVQLKESGPGLVAPSHSLSITCNVSGFSLSKYGVHWIRQIPGRGLDWLGVLRAGGSTGYNSALMSRLSISKDSSKSQVFLKMNDLRTDDTAVYFCVRDHYYYSSYGGFVYWGQGTLVTVSA
VL: DIQMTQSPASQSASLGESVTITCLASQTIGAWLAWYRQQPGKSPQLLIYAATRLADGVPSRFSGSGSGTEFSFKINNLQAEDFVSYYCQQLDSSPYTFGGGTRLEM
notes: Murine hybridoma antibody purified on Protein G; also called murine antibody 874F7
B2: 874F7-Hu1 (antibody, human IgG4 S228P, kappa)
heavy: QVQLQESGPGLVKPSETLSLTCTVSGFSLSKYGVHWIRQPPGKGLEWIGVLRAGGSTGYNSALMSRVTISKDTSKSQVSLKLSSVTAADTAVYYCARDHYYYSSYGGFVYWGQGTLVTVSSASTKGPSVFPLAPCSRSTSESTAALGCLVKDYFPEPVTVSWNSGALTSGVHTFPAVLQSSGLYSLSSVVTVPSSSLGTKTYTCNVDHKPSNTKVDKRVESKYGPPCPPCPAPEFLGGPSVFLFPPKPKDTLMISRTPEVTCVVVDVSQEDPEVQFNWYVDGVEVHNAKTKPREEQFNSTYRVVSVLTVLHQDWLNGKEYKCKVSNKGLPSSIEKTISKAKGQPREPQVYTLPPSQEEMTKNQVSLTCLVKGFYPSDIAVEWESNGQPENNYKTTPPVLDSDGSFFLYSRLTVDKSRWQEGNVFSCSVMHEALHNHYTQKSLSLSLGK
light: DIQMTQSPSSVSASVGDRVTITCLASQTIGAWLAWYQQKPGKSPKLLIYAATRLADGVPSRFSGSGSGTDFTLTISSLQPEDFATYYCQQLDSSPYTFGQGTKVEIKRTVAAPSVFIFPPSDEQLKSGTASVVCLLNNFYPREAKVQWKVDNALQSGNSQESVTEQDSKDSTYSLSSTLTLSKADYEKHKVYACEVTHQGLSSPVTKSFNRGEC
notes: also called 874F7-Hul; humanized antibody 874F7-Hu1

Tests used:
Cynomolgus IL-33-his = target: T1, Cynomolgus IL-33-his (cynomolgus, UniProt A0A2K5W3I1 112-269, biotinylated in the ELISA of Example 6); experiment: indirect ELISA, biotinylated cynomolgus IL-33-his on streptavidin plate
T1 construct: Bought protein; also called cynomolgus IL-33 protein; Cynomolgus monkeys IL-33
T1 sequence: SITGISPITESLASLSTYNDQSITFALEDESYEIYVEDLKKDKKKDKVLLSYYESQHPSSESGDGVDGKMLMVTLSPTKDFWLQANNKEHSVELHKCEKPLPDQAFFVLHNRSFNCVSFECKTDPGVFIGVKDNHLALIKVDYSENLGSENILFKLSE
Method: The binding ability of murine antibody to cynomolgus IL-33 was determined by indirect enzyme-linked immunosorbent assay (ELISA). The specific methods were as follows: The plate was pre-coated by biotin-avidin (SA) which was diluted in coating solution (50 mM carbonate coating buffer, pH 9.6) to 2 μg/ml at 4° C. overnight. The plate was blocked with 5% skim milk powder at 37° C. for 2 hours, and stored at −80° C. for later use. Biotinylated recombinant cynomolgus IL-33-his protein was diluted to 1 μg/ml in coating solution (50 mM carbonate coating buffer, pH 9.6) and was added at 100 μl/well to the pre-coated SA plate for 0.5 h at 37° C. After washing the plate with PBST for 3 times, the antibodies to be tested were diluted by gradient with 1% BSA buffer and added into the blocked plate with 100 μl/well, and incubated at 37° C. for 1 hour. The plate was washed with PBST for 3 times, and the HRP-labeled goat anti-mouse IgG was added and placed at 37° C. for 30 min. After washing the plate with PBST for 3 times, the plate was patted on the absorbent paper to remove residual droplets as far as possible. […] OD values were read at 450 nm on the microplate reader to analyze the binding ability of the antibody to the target antigen cynomolgus IL-33-his.

[1] = target: T2, IL-33 mutant protein D68A (human, UniProt O95760 112-270); experiment: ELISA as Example 9; row D68A against WT-3
T2 construct: Prokaryotic expression
T2 chain: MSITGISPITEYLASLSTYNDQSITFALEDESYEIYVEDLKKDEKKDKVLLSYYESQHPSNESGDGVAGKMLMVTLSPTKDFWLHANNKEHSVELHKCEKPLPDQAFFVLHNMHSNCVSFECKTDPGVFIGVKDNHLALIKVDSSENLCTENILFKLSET
Method: (§1) SA protein was diluted to 2 μg/mL to coat ELISA plate at 100 μL/well overnight at 4° C. The plate was washed with PBST (PBS containing 0.05% Tween20) for 3 times, and blocked with 2% BSA prepared in PBS at 200 μL/well, at room temperature for 2 h. After the plate was washed twice with PBST, IL-33-his-biotin protein was diluted to 1 μg/mL with 1% BSA prepared in PBST, and was added to ELISA plate at 100 μL/well. The plate was incubated at room temperature for 1 h, and each monoclonal antibody was diluted with 1% BSA prepared in PBST in a 3-fold gradient. The highest concentration of antibody was 10 μg/mL, and the antibody was diluted for 12 gradients. Each diluted monoclonal antibody was added to ELISA wells with 100 μL/well, and the plate was incubated at room temperature for 1 h. Each sample was added to duplicate wells in parallel. The plate was washed with PBST for 3 times, and HRP-anti human IgG Fc secondary antibody prepared with PBST was diluted at an appropriate ratio, and was added to ELISA wells at 100 μL/well. […] Each reaction solution was shaken uniformly and OD450 nm was read on a microplate reader. The data was analyzed and EC₅₀ was calculated.
(§2) Subsequently, according to the experimental method of Example 9, the affinity of the above mutant proteins to 874F7-Hu1 was determined, and IL-33 proteins (WT-1, WT-2, WT-3, and WT-4) without any mutation were set as controls.

[2] = target: T3, IL-33 mutant protein E44A (human, UniProt O95760 112-270); experiment: ELISA as Example 9; row E44A against WT-1
T3 construct: Prokaryotic expression
T3 chain: T2 chain with E44A, A68D
Method: as §1, §2

[3] = target: T4, IL-33 mutant protein E62A (human, UniProt O95760 112-270); experiment: ELISA as Example 9; row E62A against WT-3
T4 construct: Prokaryotic expression
T4 chain: T2 chain with E62A, A68D
Method: as §1, §2

[4] = target: T5, IL-33 mutant protein K70A (human, UniProt O95760 112-270); experiment: ELISA as Example 9; row K70A against WT-3
T5 construct: Prokaryotic expression
T5 chain: T2 chain with A68D, K70A
Method: as §1, §2

[5] = target: T6, IL-33 mutant protein S63A (human, UniProt O95760 112-270); experiment: ELISA as Example 9; row S63A against WT-3
T6 construct: Prokaryotic expression
T6 chain: T2 chain with S63A, A68D
Method: as §1, §2

[6] = target: T7, IL-33 mutant protein V67A (human, UniProt O95760 112-270); experiment: ELISA as Example 9; row V67A against WT-3
T7 construct: Prokaryotic expression
T7 chain: T2 chain with V67A, A68D
Method: as §1, §2

Binder	EC50 (Cynomolgus IL-33-his) [pM]	Affinity decline ratio [1] [fold]	Affinity decline ratio [2] [fold]	Affinity decline ratio [3] [fold]	Affinity decline ratio [4] [fold]	Affinity decline ratio [5] [fold]	Affinity decline ratio [6] [fold]
B1	30	–	–	–	–	–	–
B2	–	1.2	0.6	0.8	0.6	0.9	0.6
